Test results: the Human Domainome abundance scans (Beltran et al. 2025)

B1: Double-stranded RNA-binding protein Staufen homolog 1, residues 183 to 249; numbered along this chain, O95793 (parent)
chain: KSEISQVFEIALKRNLPVNFEVARESGPPHMKNFVTKVSVGEFVGEGEGKSKKISKKNAAIAVLEEL

Variants of: B1
Assay: abundance fitness (aPCA) (normalised: wild type 0, dead -1); higher = more abundant; growth selection in yeast, the domain comes from the species named
Conditions: Homo sapiens

Abundance fitness, by site and new letter:
I4: V -0.059; E -0.44; M -0.292; C -0.417; Y -0.74; G -0.735; H -0.447; Q -0.661; R -0.7; N -0.56; T -0.391; W -0.359; K -0.516; S -0.461; F -0.534; A -0.705; D -0.388
L12: R 0.127; F -0.075; D -0.047; K -0.029; N 0.081; S 0.028; I -0.026; G -0.035; A 0.111; W -0.063; H -0.032; T -0.155; C -0.06; M 0.011; Y 0.066; Q 0.01; P -0.645; E -0.085
R14: T -0.371; M 0.014; L -0.139; V -0.6; W -0.25; N -0.179; E -0.334; Y -0.048; S -0.31; H -0.155; D -0.487; Q -0.188; A -0.204; F -0.232; G -0.361; P -0.594; K -0.212
E21: Y -0.172; L -0.133; A -0.059; F -0.055; C -0.114; R -0.084; D -0.105; S -0.078; P -1.05; W -0.009; V -0.023; N -0.226; H -0.072; G -0.165; Q 0.014; I -0.204; M -0.181; K -0.049
V18: A -0.377; T -0.784; L -0.404; K -0.562; R -0.657; M -0.396; G -0.707; E -0.507; C -0.218; Y -0.739; W -0.861; S -0.465; D -0.746; F -0.832; Q -0.647; N -0.906; P -0.402
F20: W 0.036; P -0.654; N -0.779; Y -0.291; C -0.361; L -0.286; H -0.699; T -0.395; S -0.429; A -0.499; R -0.569; M -0.305; K -0.45; D -0.613; I -0.114; Q -0.657
N15: E -0.231; G 0.025; I -0.629; R -0.155; Q -0.144; L -0.531; H 0.006; V -0.785; F -0.557; A -0.198; T -0.431; D -0.156; M -0.296; Y -0.637; S -0.146; C -0.325
P17: T 0.012; A -0.09; V -0.174; Y -0.288; E -0.09; K 0.031; N -0.112; I -0.323; H -0.093; W -0.56; M -0.172; G -0.24; S -0.008; Q -0.037; L -0.196; C -0.447; R -0.025
V22: W -0.36; N -0.114; F -0.165; A -0.022; I -0.005; C -0.087; M -0.081; T 0.034; P 0.056; D -0.102; H -0.083; Q -0.031; E -0.033; S -0.059; Y -0.094; L 0.016; R 0.069; K 0.105
E3: Y -0.098; V -0.022; W -0.309
S5: F -0.512; P -0.528
Q6: P -0.697; L -0.158; N -0.494; E -0.021; M -0.169; H -0.415; I -0.393; D -0.435; C -0.283; F -0.653; G -0.634; S -0.255; R -0.097; T -0.198
F8: V -0.203; P -0.457; D -0.408; T -0.337; N -0.317; H -0.012; L -0.112; C -0.258; R -0.129; Y 0.129; E -0.268; G -0.332; K -0.135; M -0.143; A -0.334; S -0.394; W 0.064
L16: S -0.609; D -0.54; I -0.196; E -0.472; V -0.176; K -0.432; Q -0.128; Y -0.454; W -0.063; P -0.663; N -0.716; M -0.131; H -0.708; R -0.587; F -0.424; T -0.594; C -0.515; A -0.421; G -0.863
A23: K -0.052; T 0.033; E -0.102; I 0.011; Q -0.005; C -0.055; W -0.141; L 0.008; F -0.121; M 0.06; D -0.108; P 0.021; S -0.063; H 0.066; Y -0.086
N19: F -0.062; T 0.037; P -0.698; A -0.047; K 0.082; G -0.323; L -0.069; D -0.229; M -0.048; H 0.011; C 0.027; W -0.246; R 0.077; S 0.006; I -0.15; Y -0.167; V -0.101
A11: M -0.913; V -0.892; F -1.13; L -0.9; Q -0.732; C -0.825; I -1.08; K -0.633; E -0.822; P -0.891; T -0.653; Y -0.967; W -0.91; D -0.679; R -0.829; S -0.358; N -0.564; G 0.035
K13: I -0.26; V -0.215; M -0.213; L -0.213; W -0.59; S -0.194; R -0.071; P -0.528; D -0.327; Y -0.323; E -0.183; C -0.296; A -0.019; T -0.246; F -0.436; G -0.308; Q -0.079
I10: T -0.542
V7: Q -0.681; F -0.748; R -0.631; W -1.13; S -0.656; D -0.676; L -0.142; G -0.626; A -0.781; E -0.486; Y -0.782; M -0.295; T -0.717; H -0.857; K -0.586; C -0.607; I -0.24; P -0.68
R24: I -0.17; E -0.031; H -0.118; K 0.016; L -0.129; N -0.207; Y -0.246; Q -0.085; C -0.045; A -0.132; W -0.256; T -0.085; D -0.141; G -0.196; V -0.102; S -0.065; P -0.035
E25: C -0.104; H -0.052; G -0.075; A -0.081; I -0.141
E9: Q -0.038; P -0.716; G -0.433; C -0.33; A -0.057; M -0.317; W -0.506; V -0.517; I -0.552; L -0.36; T -0.197; F -0.545; Y -0.338; H -0.155; R -0.232; S -0.2; D -0.049
